Test results reported in patent US10925971B2, “Methods of treating PRLR positive breast cancer” (Regeneron Pharmaceuticals, Inc., priority 2016, dated 2021).
Where two headings read alike, the source gives them in different places.

What was measured:
HEK293 (293) cells = test: In vitro cell viability (cell kill) assay, CCK8; assay type: cell-based, human
Description: (§1) PRLR-overexpressing cells, including HEK293, PC3, MCF7 and NCI-N87, were generated to assess the ability of anti-PRLR conjugated antibodies to reduce cell viability. For comparative purposes, PC3 and T47D cells with overexpressed ErbB2 were also generated, as well as an MCF7 cell line over-expressing both hPRLR and hErbB2. Briefly, Lipofectamine® 2000-mediated transfection methodology was utilized to generate HEK293 cells expressing human PRLR (HEK293/hPRLR) or human ErbB2 (HEK293/hErbB2). Lipofectamine LTX with Plus Reagent was used to generate PC3 cells expressing human PRLR (PC3/hPRLR) or human ErbB2 (PC3/hErbB2). Lentiviral-mediated transduction was utilized to generate MCF7 cells expressing human PRLR (MCF7/hPRLR), NCI-N87 cells expressing human PRLR (NCI-N87/hPRLR), T47D cells over-expressing human ErbB2 (T47D/hErbB2), and MCF7 cells expressing both human PRLR and human ErbB2 (MCF7/hPRLR/hErbB2). All lines were selected for at least two weeks in complete growth media plus appropriate selection reagents. Stably expressing populations were enriched for PRLR expression via FACS using the anti PRLR antibody Control I.
(§2) Next, the ability of anti-PRLR-DM1 antibody-drug conjugates (i.e., anti-PRLR antibodies conjugated to DM1 via a non-cleavable linker [SMCC]) to reduce cell viability was determined using in vitro cell based assays. Cells were seeded in PDL-coated 96 well plates at 1500 to 10000 cells per well in complete growth media and allowed to grow overnight. For cell viability curves, ADCs or free DM1 (as the methyl disulfide derivative DM1-SMe) were added to the cells at final concentrations ranging from 500 nM to 5 pM and incubated for 3 days. The 293, PC3 and T47D cells were incubated with CCK8 (Dojindo, Rockville, Md.) for the final 1-3 hours and the absorbance at 450 nm (OD450) was determined on a Flexstation3 (Molecular Devices, Sunnyvale, Calif.). MCF7 cells were treated with Hoechst 33342 nuclear stain while being fixed with 4% formaldehyde. Images were acquired on the ImageXpress micro XL (Molecular Devices, Sunnyvale, Calif.) and nuclear counts were determined via Columbus image analysis software (Perkin Elmer, Shelton, Conn.). Background OD450 values (PC3, 293, and T47D) or nuclear counts (MCF7) from digitonin (40 nM) treated cells was subtracted from all wells and viability was expressed as a percentage of the untreated controls. IC50 values were determined from a four-parameter logistic equation over a 10-point response curve (GraphPad Prism).

T47D cells = test: In vitro cell viability (cell kill) assay, CCK8; assay type: cell-based, human; settings: T47D; for IC50: read-out: IC50
Experimental: as §2

[1] = system: MCF7/hPRLR (MCF7/PRLR) cells; test: In vitro cell viability (cell kill) assay, nuclear counts; assay type: cell-based, human; settings: Table 20
Description: as §1, §2

MCF7 (MCF7/ATCC) cells = test: as above; assay type: cell-based, human; settings: MCF7/ATCC; Table 20
Description: as §1, §2

PRLR expressing cells = test: In vitro cell viability (cell kill) assay, several cell backgrounds; assay type: cell-based, human; settings: PC3/hPRLR and MCF7/hPRLR cell lines
Description: as §1, §2

T47D#11 tumors = assay type: in vivo, CB17 SCID mice; settings: for Final Tumor size mm^3 (mean ± SEM) / Average Tumor Growth Inhibition (%): T47D#11 tumors, SCID mice, Day 66; for T47D #11 tumor growth: repeat dosing 5 and 15 mg/kg
Description: (§3) Briefly, 20×10^6 MCF7/PRLR cells (ATCC HTB-22 transfected with full length hPRLR as previously described) were implanted subcutaneously into the left mammary fat pad of female NCr nude mice. In other studies, 10×10^6 PC3/PRLR (ATCC CRL-1435 transfected with full length hPRLR as previously described) were implanted subcutaneously into the left flank of male SCID mice. Additionally, 10×10^6 parental T47D (ATCC HTB-133) or 7.5×10^10 T47D #11 cells (ATCC HTB-133 serially passaged in vivo as described below) were subcutaneously implanted into the left flank of female CB17 SCID mice. All mice were obtained from Taconic (Hudson, N.Y.). Each bolus of cells was supplemented with a 90-day estrogen release pellet (1.7 mg/pellet; Innovative Research America, Sarasota Fla.). […] Control reagents included PBS vehicle, free methyl-disulfide DM1 (DM1-SMe) and isotype Control 1-DM1.
(§4) In multi-dose studies, mice were dosed once a week for a total of three weeks with tumor volumes and body weights being monitored twice weekly throughout the study. Test ADCs were dosed at 5 and/or 15 mg/kg in the multi-dose studies. In single-dose studies, mice received a single dose of test ADC, and tumor volumes and body weights were monitored twice weekly throughout the study. Test ADCs were dosed at 1, 2.5, 5, and 15 mg/kg in the single-dose studies. Average tumor size as well as tumor growth inhibition relative to the vehicle treated group were calculated for each group. Tumors were measured with calipers twice a week until the average size of the vehicle group reached 1000 mm^3. Tumor size was calculated using the formula (length×width^2)/2. Tumor growth inhibition was calculated according to the following formula: (1−((Tfinal−Tinitial)/(Cfinal−Cinitial)))*100, where T (treated group) and C (control group) represent the mean tumor mass on the day the vehicle group reached 1000 mm^3. […] Results are summarized in Tables 21-25 (multi-dose) and Table 26 (single dose). (NT=not tested in the particular experiment shown).

PC3 cells = test: In vitro cell viability (cell kill) assay, CCK8; assay type: cell-based, human
Description: as §1, §2

PC3/PRLR tumors = test: PC3/PRLR xenograft, tumor size and tumor growth inhibition; assay type: in vivo, SCID mice; settings: PC3/PRLR tumors TRIAL #2, SCID mice, Day 55
Description: as §3, §4

MCF7/PRLR tumors = test: MCF7/PRLR breast cancer xenograft, tumor size and tumor growth inhibition; assay type: in vivo, NCr nude mice; settings: MCF7/PRLR tumors TRIAL #2, NCr Nude mice, Day 63
Description: as §3, §4

`COc1cc2cc(c1Cl)N(C)C(=O)C[C@H](OC(=O)[C@H](C)N(C)C(=O)CCC(C)(C)S)[C@]1(C)O[C@H]1[C@H](C)[C@@H]1C[C@@](O)(NC(=O)O1)[C@H](OC)/C=C/C=C(\C)C2` [Free DM4] was tested, and the “% Kill” value (HEK293 (293) cells; 293, Table 19) was 100%, the IC50 (HEK293 (293) cells; 293, Table 19) was 0.6 nM and the “% Kill” value (T47D cells; Table 19) was 100%. For the same molecule, the IC50 (T47D cells; Table 19) was 0.5 nM, the “% Kill” value [1] was 90% and the IC50 [1] was 2 nM. For the same molecule, the “% Kill” value (MCF7 (MCF7/ATCC) cells) was 90% and the IC50 (MCF7 (MCF7/ATCC) cells) was 1.3 nM.

`COc1cc2cc(c1Cl)N(C)C(=O)C[C@H](OC(=O)[C@H](C)N(C)C(=O)CCSSC)[C@]1(C)O[C@H]1[C@H](C)[C@@H]1C[C@@](O)(NC(=O)O1)[C@H](OC)/C=C/C=C(\C)C2` [Me-SS-May Free DM1] was tested, and the “% Kill” value (HEK293 (293) cells; HEK293, Table 13, without PRL) was 94%, the IC50 (HEK293 (293) cells; HEK293, Table 13, without PRL) was 0.6 nM and the “% Kill” value (T47D cells; Table 13, without PRL) was 100%. For the same molecule, the IC50 (T47D cells; Table 13, without PRL) was 0.3 nM.

B1: H1H6953-mc-vc-PAB-MMAE (conjugate)
VH: EVQLLESGGGLVQPGGTLRLSCAASGFTFSAYAMSWVRQAPGKGLEWVSSINVRAGDTYYADSVKGRFTISRDNSKNTLFLLMNSLRAEDTAAYYCAKARYSSNWGFDFWGQGTLVTVSS
VL: DIVMTQSPDSLTVSLGARTTINCQSSQTILHSSNNHNYLAWYQQKPGLPPKLLIYWSSTRESGVPDRFSGSGSGTDFTLTISSLQAEDVAIYYCQQYSNTPYTFGQGTKLEIN
With B1 the “cell killing, non-cleavable DM1 ADCs versus cleavable MMAE ADCs” value (PRLR expressing cells) was “nearly equivalent cell killing”.

B2: H1H6765P-DM1: anti-PRLR antibody H1H6765P conjugated to DM1 through an SMCC linker (conjugate)
VH: EVQLVESGGGVVRPGGSLRLSCVGSGFSFDDHGMNWVRQGPGKGLEWVSGFNWNGGSTNYAESVKGRFTISRDNARNSLFLQMNSLRAEDTALYYCVRGRSGWFNDAFDVWGPGTMVTVSS
VL: EIVLTQSPGTLSLSPGERATLSCRASQTINSNYLAWYRQKPGQTPRLLIYGTSSRATGIPDRFSGSGSGTDFSLTISRLEPEDFAVFYCQQYAGLPTFGPGTKVDIK
B2 was tested, and the “Final Tumor size mm^3 (mean ± SEM)” value (T47D#11 tumors; multi-dose 5 mg/kg) was 183 ± 28 mm^3, the “Average Tumor Growth Inhibition (%)” value (T47D#11 tumors; multi-dose 15 mg/kg) was 111% and the “Final Tumor size mm^3 (mean ± SEM)” value (T47D#11 tumors; multi-dose 15 mg/kg) was 69 ± 12 mm^3. The “T47D #11 tumor growth” value (T47D#11 tumors) was “potently inhibited tumor growth”, the IC50 (PC3 cells; Table 11, 3 days) was 200 nM and the “Final Tumor size mm^3 (mean ± SEM)” value (PC3/PRLR tumors; multi-dose 5 mg/kg) was 489 ± 70 mm^3. The “Average Tumor Growth Inhibition (%)” value (PC3/PRLR tumors; multi-dose 15 mg/kg) was 98%, the “Final Tumor size mm^3 (mean ± SEM)” value (PC3/PRLR tumors; multi-dose 15 mg/kg) was 181 ± 42 mm^3 and the “cell killing, non-cleavable DM1 ADCs versus cleavable MMAE ADCs” value (PRLR expressing cells) was “nearly equivalent cell killing”. The “Average Tumor Growth Inhibition (%)” value (MCF7/PRLR tumors; multi-dose 5 mg/kg) was 122%, the “Average Tumor Growth Inhibition (%)” value (MCF7/PRLR tumors; multi-dose 15 mg/kg) was 136% and the “Final Tumor size mm^3 (mean ± SEM)” value (MCF7/PRLR tumors; multi-dose 15 mg/kg) was 0 ± 0 mm^3.

B3: H1H6765-mc-VC-PAB-MMAE (conjugate)
VH: B2 VH
VL: B2 VL
B3 was tested, and the “cell killing, non-cleavable DM1 ADCs versus cleavable MMAE ADCs” value (PRLR expressing cells) was “nearly equivalent cell killing”.

B4: H1H6782P-DM1: anti-PRLR antibody H1H6782P conjugated to DM1 through an SMCC linker (conjugate)
VH: EVQLVESGGGLVQPGRSLRLSCAASGFTFDDYAMHWVRQAPGKGLEWVSGIIWNSGHIGYGDSVKGRFTISRDNAKKSLYLQMNSLRAEDTALYYCARDSGRYQSYFDYWGQGTLVTVSS
VL: DIQMTQSPSTLSASVGDRVTITCRASHIISSWLAWYQQKPGKAPKVLIFKASSLESGVPSRFSGSGSGTEFTLTISSLQPDDFATYYCQQYNTYSRTFGQGTKVEIK
With B4 the “Final Tumor size mm^3 (mean ± SEM)” value (T47D#11 tumors; multi-dose 5 mg/kg) was 293 ± 20 mm^3, the “Average Tumor Growth Inhibition (%)” value (T47D#11 tumors; multi-dose 15 mg/kg) was 106% and the “Final Tumor size mm^3 (mean ± SEM)” value (T47D#11 tumors; multi-dose 15 mg/kg) was 124 ± 36 mm^3. The “T47D #11 tumor growth” value (T47D#11 tumors) was “potently inhibited tumor growth”, the “% Kill” value (HEK293 (293) cells; 293, Table 11, 3 days) was 86% and the “% Kill” value (PC3 cells; Table 11, 3 days) was 67%. For the same molecule, the “Average Tumor Growth Inhibition (%)” value (PC3/PRLR tumors; multi-dose 5 mg/kg) was 69%, the “Final Tumor size mm^3 (mean ± SEM)” value (PC3/PRLR tumors; multi-dose 5 mg/kg) was 490 ± 63 mm^3 and the “Final Tumor size mm^3 (mean ± SEM)” value (PC3/PRLR tumors; multi-dose 15 mg/kg) was 321 ± 33 mm^3. For the same molecule, the “Average Tumor Growth Inhibition (%)” value (MCF7/PRLR tumors; multi-dose 5 mg/kg) was 123% and the “Average Tumor Growth Inhibition (%)” value (MCF7/PRLR tumors; multi-dose 15 mg/kg) was 137%.

B5: H1H6958N2-mc-VC-PAB-MMAE (conjugate)
VH: QVQLVESGGGVVQPGRSLRLSCGASGFTFRNYGMQWVRQGPGKGLEWVTLISFDGNDKYYADSVKGRFTISRDNSKNTLFLQMNSLRTEDTAVYYCARGGDFDYWGQGTLVTVSS
VL: DIQMTQSPSSLSASVGDRVTITCRASQDIRKDLGWYQQKPGKAPKRLIYAASSLHSGVPSRFSGSGSGTEFTLTISSLQPEDFATYYCLQHNSYPMYTFGQGTKLEIK
For B5, the “% Kill” value (PC3 cells; Table 18) was 39% and the “cell killing, non-cleavable DM1 ADCs versus cleavable MMAE ADCs” value (PRLR expressing cells) was “nearly equivalent cell killing”.
